Numbered stars: 1 amine (or outer) side, 2 acyl side, 3 side chain; on linkers, the order of the positions; unused ones are H or OH. Bridge positions count the residues as written; N and C are the ends. Ends that are not written are not given here. acetyl = acetyl (haloacetyl before ring closure) on the side-chain amine, O=C(C[*:1])[*:2]; COCH2 = acetyl group that carries the bridge
target: T1, Recombinant Human FGFR2 alpha (IIIc) Fc Chimera Protein (Homo sapiens, UniProt P21802); test: ELISA binding affinity of enzymatically synthesized peptide to FGFR; conditions: ELISA luminescence signal at 10 nmol/L peptide, SEQ ID NO: 47 at 10 nmol/L standardized to 1; enzyme synthesis product
T1 construct: Fc (chimera); purchased R&D systems 712-FR-050
T1 sequence (P21802 with tags, fused parts or gaps limits assumed): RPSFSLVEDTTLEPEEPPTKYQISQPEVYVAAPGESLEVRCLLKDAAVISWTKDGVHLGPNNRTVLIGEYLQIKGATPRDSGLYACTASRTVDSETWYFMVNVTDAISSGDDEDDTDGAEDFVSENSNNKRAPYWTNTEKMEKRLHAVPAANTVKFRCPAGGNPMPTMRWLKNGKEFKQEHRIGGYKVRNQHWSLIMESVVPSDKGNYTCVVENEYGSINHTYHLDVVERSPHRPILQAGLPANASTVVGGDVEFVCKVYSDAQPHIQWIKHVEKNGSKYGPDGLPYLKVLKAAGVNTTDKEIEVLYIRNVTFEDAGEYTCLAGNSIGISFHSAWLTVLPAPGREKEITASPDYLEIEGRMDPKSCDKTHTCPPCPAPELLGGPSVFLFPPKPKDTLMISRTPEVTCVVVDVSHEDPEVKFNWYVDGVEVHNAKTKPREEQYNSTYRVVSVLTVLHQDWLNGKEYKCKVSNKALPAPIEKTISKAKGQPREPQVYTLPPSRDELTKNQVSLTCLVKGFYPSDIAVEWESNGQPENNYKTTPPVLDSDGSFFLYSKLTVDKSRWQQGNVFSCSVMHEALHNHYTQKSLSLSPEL
Outline: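 FGFR2 alpha (IIIc) Fc chimera (5 ng/well) was immobilized, and Myc-tagged peptide was bound 3 h at room temperature, then detected with anti-Myc antibody (2 h) and chemiluminescent substrate. Signal was corrected against FGFR-free wells. Score A–D was the luminescence at 10 nmol/L peptide, normalized to cyclic peptide SEQ ID NO: 47.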

Q: “227 (YCEENYLDWEQYQYFIYFK(COCH2)Y; thioether 2-19 (inferred)) [compound 227]” was tested. Which “Evaluation result of binding affinity to FGFR” value (shortened to “Evaluation result”) did it give?
A: A (0.7 or more)

Q: Which “Evaluation result” value does the source give for “330 (YCEENYLDPAQYQYFIYFK(COCH2)Y; thioether 2-19 (inferred)) [compound 330]” here?
A: A (0.7 or more)

Q: Which “Evaluation result” value does the source give for “288 (YCEENYLDPEQYQYFEYFK(COCH2)Y; thioether 2-19) [compound 288]” here?
A: A (0.7 or more)

Q: For “247 (YCEENYLDPTQYQYFIYFK(COCH2)Y; thioether 2-19 (inferred)) [compound 247]”, which “Evaluation result” value is on record?
A: A (0.7 or more)

Q: With “228 (YCEENYLDNEQYQYFIYFK(COCH2)Y; thioether 2-19 (inferred)) [compound 228]” as the substance, how does the “Evaluation result” value read?
A: A (0.7 or more)

Q: How did the “Evaluation result” value turn out when “219 (YCEENYLRPEQYQYFIYFK(COCH2)Y; thioether 2-19 (inferred)) [compound 219]” was run?
A: C (0.1 or more and less than 0.5)

Q: With “127 (YCPYNFYNIIQFHYFLTYK(COCH2)T; thioether 2-19 (inferred)) [compound 127]” as the substance, how does the “Evaluation result” value read?
A: A (0.7 or more)

Q: Which “Evaluation result” value does the source give for “38 (QCSYLYQYVFERYKVTVPK(COCH2)D; thioether 2-19 (inferred)) [compound 38]” here?
A: A (0.7 or more)

Q: For “403 (ACRRANWIHPIQWFFFHVYK(COCH2)H; thioether 2-20 (inferred)) [compound 403]”, which “Evaluation result” value is on record?
A: B (0.5 or more and less than 0.7)

Q: “201 (YCEENYQDPEQYQYFIYFK(COCH2)Y; thioether 2-19 (inferred)) [compound 201]” was tested. Which “Evaluation result” value did it give?
A: A (0.7 or more)

Q: For “64 (KCPQNFINPVQWRAFQHYK(COCH2)N; thioether 2-19 (inferred)) [compound 64]”, which “Evaluation result” value is on record?
A: B (0.5 or more and less than 0.7)

Q: For “315 (YCEENYLDPEQYQYFIYFK(COCH2)Q; thioether 2-19 (inferred)) [compound 315]”, which “Evaluation result” value is on record?
A: A (0.7 or more)

Q: How did the “Evaluation result” value turn out when “363 (LCYLYQYIYTAK(COCH2)F; thioether 2-12) [compound 363]” was run?
A: C (0.1 or more and less than 0.5)

Q: How did the “Evaluation result” value turn out when “390 (YCEENYLDPEQYQYFHYFK(COCH2)R; thioether 2-19 (inferred)) [compound 390]” was run?
A: C (0.1 or more and less than 0.5)

Q: How did the “Evaluation result” value turn out when “116 (QCYQNWYLYQYLVERYYK(COCH2)D; thioether 2-18 (inferred)) [compound 116]” was run?
A: C (0.1 or more and less than 0.5)

Q: For “115 (NCPNYWSQIQWHYFQAYK(COCH2)Q; thioether 2-18 (inferred)) [compound 115]”, which “Evaluation result” value is on record?
A: A (0.7 or more)

Q: For “408 (HCSQHQTTYYQIYAYLHAIK(COCH2)I; thioether 2-20 (inferred)) [compound 408]”, which “Evaluation result” value is on record?
A: C (0.1 or more and less than 0.5)

Q: For “366 (DCQQYYLYLYLWK(COCH2)I; thioether 2-13) [compound 366]”, which “Evaluation result” value is on record?
A: C (0.1 or more and less than 0.5)

Q: With “307 (YCEENYLDPEQYQYFIYWK(COCH2)Y; thioether 2-19 (inferred)) [compound 307]” as the substance, how does the “Evaluation result” value read?
A: A (0.7 or more)

Q: Which “Evaluation result” value does the source give for “349 (YCEMNYLDPEQYQYFIYFK(COCH2)Y; thioether 2-19) [compound 349]” here?
A: A (0.7 or more)

Q: “388 (RCHHNFHHARQHGFFYHYK(COCH2)R; thioether 2-19 (inferred)) [compound 388]” was tested. Which “Evaluation result” value did it give?
A: C (0.1 or more and less than 0.5)

Q: With “84 (ECPQNFINPVQWRYFQHYK(COCH2)N; thioether 2-19 (inferred)) [compound 84]” as the substance, how does the “Evaluation result” value read?
A: A (0.7 or more)

Q: With “150 (HCEENYLDPEQYQYFIYFK(COCH2)Y; thioether 2-19 (inferred)) [compound 150]” as the substance, how does the “Evaluation result” value read?
A: A (0.7 or more)

Q: Which “Evaluation result” value does the source give for “178 (YCEDNYLDPEQYQYFIYFK(COCH2)Y; thioether 2-19 (inferred)) [compound 178]” here?
A: A (0.7 or more)

Q: “78 (WCPQNFINPVQWRYFQHYK(COCH2)N; thioether 2-19 (inferred)) [compound 78]” was tested. Which “Evaluation result” value did it give?
A: A (0.7 or more)

Q: How did the “Evaluation result” value turn out when “52 (VCNENNWSRSQYHFFLQYKY; Description of Artificial Sequence: Cyclic peptide) [compound 52]” was run?
A: C (0.1 or more and less than 0.5)

Q: Which “Evaluation result” value does the source give for “387 (RCHHNFHHARQHRFFHHYK(COCH2)R; thioether 2-19 (inferred)) [compound 387]” here?
A: C (0.1 or more and less than 0.5)

Q: For “37 (QCQLNYWDDLQFTYYLQYK(COCH2)V; thioether 2-19) [compound 37]”, which “Evaluation result” value is on record?
A: A (0.7 or more)

Q: Which “Evaluation result” value does the source give for “214 (YCEENYLNPEQYQYFIYFK(COCH2)Y; thioether 2-19 (inferred)) [compound 214]” here?
A: A (0.7 or more)

Q: With “235 (YCEENYLDHEQYQYFIYFK(COCH2)Y; thioether 2-19 (inferred)) [compound 235]” as the substance, how does the “Evaluation result” value read?
A: A (0.7 or more)

Q: Which “Evaluation result” value does the source give for “222 (YCEENYLDLEQYQYFIYFK(COCH2)Y; thioether 2-19 (inferred)) [compound 222]” here?
A: A (0.7 or more)

Q: How did the “Evaluation result” value turn out when “312 (YCEENYLDPEQYQYFIYFK(COCH2)F; thioether 2-19 (inferred)) [compound 312]” was run?
A: A (0.7 or more)

Q: For “302 (YCEENYLDPEQYQYFIDFK(COCH2)Y; thioether 2-19 (inferred)) [compound 302]”, which “Evaluation result” value is on record?
A: A (0.7 or more)

Q: “399 (QK(COCH2)PQNFINPVQWRYFQHYCN; thioether 2-19 (inferred)) [compound 399]” was tested. Which “Evaluation result” value did it give?
A: C (0.1 or more and less than 0.5)

Q: Which “Evaluation result” value does the source give for “242 (YCEENYLDPYQYQYFIYFK(COCH2)Y; thioether 2-19 (inferred)) [compound 242]” here?
A: A (0.7 or more)

Q: For “396 (YCEENYLDPEQHQYFIYFK(COCH2)R; thioether 2-19 (inferred)) [compound 396]”, which “Evaluation result” value is on record?
A: B (0.5 or more and less than 0.7)

Q: How did the “Evaluation result” value turn out when “431 (CHENYLDPEQYQYFHYFK(COCH2); thioether 1-18 via acetyl) [compound 431]” was run?
A: C (0.1 or more and less than 0.5)

Q: For “174 (YCENNYLDPEQYQYFIYFK(COCH2)Y; thioether 2-19 (inferred)) [compound 174]”, which “Evaluation result” value is on record?
A: A (0.7 or more)

Q: How did the “Evaluation result” value turn out when “240 (YCEENYLDPVQYQYFIYFK(COCH2)Y; thioether 2-19 (inferred)) [compound 240]” was run?
A: A (0.7 or more)

Q: For “85 (RCPQNFINPVQWRYFQHYK(COCH2)N; thioether 2-19 (inferred)) [compound 85]”, which “Evaluation result” value is on record?
A: A (0.7 or more)

Q: Which “Evaluation result” value does the source give for “162 (YCTENYLDPEQYQYFIYFK(COCH2)Y; thioether 2-19 (inferred)) [compound 162]” here?
A: A (0.7 or more)

Q: How did the “Evaluation result” value turn out when “429 (YCHENYLDPEQYQYFHYFK(COCH2); thioether 2-19 via acetyl) [compound 429]” was run?
A: C (0.1 or more and less than 0.5)

Q: How did the “Evaluation result” value turn out when “83 (DCPQNFINPVQWRYFQHYK(COCH2)N; thioether 2-19 (inferred)) [compound 83]” was run?
A: A (0.7 or more)

Q: Which “Evaluation result” value does the source give for “272 (YCEENYLDPEQYQFFIYFK(COCH2)Y; thioether 2-19) [compound 272]” here?
A: A (0.7 or more)

Q: “241 (YCEENYLDPFQYQYFIYFK(COCH2)Y; thioether 2-19 (inferred)) [compound 241]” was tested. Which “Evaluation result” value did it give?
A: A (0.7 or more)

Q: How did the “Evaluation result” value turn out when “200 (YCEENYNDPEQYQYFIYFK(COCH2)Y; thioether 2-19 (inferred)) [compound 200]” was run?
A: C (0.1 or more and less than 0.5)

Q: “374 (QCLQDLYRYLYLLK(COCH2)A; thioether 2-14) [compound 374]” was tested. Which “Evaluation result” value did it give?
A: C (0.1 or more and less than 0.5)

Q: “385 (QCAYYHLYQYLHQLK(COCH2)V; thioether 2-15 (inferred)) [compound 385]” was tested. Which “Evaluation result” value did it give?
A: B (0.5 or more and less than 0.7)

Q: How did the “Evaluation result” value turn out when “139 (ICEENYLDPEQYQYFIYFK(COCH2)Y; thioether 2-19 (inferred)) [compound 139]” was run?
A: A (0.7 or more)

Q: Which “Evaluation result” value does the source give for “342 (YCEENYLDPKQYQYFIYFK(COCH2)Y; thioether 2-19) [compound 342]” here?
A: A (0.7 or more)

Q: For “322 (ACEENYLDPEQYQYFIYFK(COCH2)Y; thioether 2-19 (inferred)) [compound 322]”, which “Evaluation result” value is on record?
A: A (0.7 or more)

Q: For “296 (YCEENYLDPEQYQYFIFFK(COCH2)Y; thioether 2-19) [compound 296]”, which “Evaluation result” value is on record?
A: A (0.7 or more)

Q: How did the “Evaluation result” value turn out when “104 (QCPQNFINPVQYRYFQHYK(COCH2)N; thioether 2-19 (inferred)) [compound 104]” was run?
A: B (0.5 or more and less than 0.7)

Q: Which “Evaluation result” value does the source give for “360 (YCEENYLDPEQYQYFIYFK(COCH2)M; thioether 2-19) [compound 360]” here?
A: A (0.7 or more)

Q: How did the “Evaluation result” value turn out when “93 (QCPQNFINPVQWRYFQHWK(COCH2)N; thioether 2-19 (inferred)) [compound 93]” was run?
A: A (0.7 or more)

Q: Which “Evaluation result” value does the source give for “199 (YCEENYWDPEQYQYFIYFK(COCH2)Y; thioether 2-19 (inferred)) [compound 199]” here?
A: A (0.7 or more)

Q: Which “Evaluation result” value does the source give for “237 (YCEENYLDPPQYQYFIYFK(COCH2)Y; thioether 2-19 (inferred)) [compound 237]” here?
A: A (0.7 or more)

Q: How did the “Evaluation result” value turn out when “209 (YCEENYLIPEQYQYFIYFK(COCH2)Y; thioether 2-19 (inferred)) [compound 209]” was run?
A: C (0.1 or more and less than 0.5)

— patent publication US20260008815A1, “CYCLIC PEPTIDE OR SALT THEREOF, AND USES THEREOF” (FUJIFILM Corporation, priority 2023, published 2026)
